Measurements taken from patent publication US20070281327A1 (published 2007).
Positions count from the first letter of the chain named.

T1: Human Mpl-IgG Fc fusion protein (hMpl-Fc) (human, UniProt P40238 26-491)
T1 construct: range 26-491; Expressed in CHO-DG44 cells with a 19-amino acid signal peptide from a human IgG H chain variable region, which is not part of the mature protein; No numbering scheme is named for Asp 216; also called shMPL-Fc; not shown: Fc region of human IgG-gamma1, a region downstream of Asp 216
T1 sequence: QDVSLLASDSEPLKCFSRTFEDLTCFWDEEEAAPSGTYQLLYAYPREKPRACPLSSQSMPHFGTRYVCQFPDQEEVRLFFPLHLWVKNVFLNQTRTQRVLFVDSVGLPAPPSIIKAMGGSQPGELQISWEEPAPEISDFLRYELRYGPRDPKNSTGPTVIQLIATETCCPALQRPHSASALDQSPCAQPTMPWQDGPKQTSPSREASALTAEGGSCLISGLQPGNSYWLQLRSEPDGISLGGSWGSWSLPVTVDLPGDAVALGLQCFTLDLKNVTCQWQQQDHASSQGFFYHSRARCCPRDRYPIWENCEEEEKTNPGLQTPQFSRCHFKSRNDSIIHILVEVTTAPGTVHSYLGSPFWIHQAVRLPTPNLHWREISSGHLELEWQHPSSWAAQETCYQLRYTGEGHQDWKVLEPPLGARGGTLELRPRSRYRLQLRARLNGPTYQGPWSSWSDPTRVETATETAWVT

T2: human Mpl expressed on BaF3 cells (BaF3-human Mpl) (human, UniProt P40238 26-635)
T2 sequence (looked up): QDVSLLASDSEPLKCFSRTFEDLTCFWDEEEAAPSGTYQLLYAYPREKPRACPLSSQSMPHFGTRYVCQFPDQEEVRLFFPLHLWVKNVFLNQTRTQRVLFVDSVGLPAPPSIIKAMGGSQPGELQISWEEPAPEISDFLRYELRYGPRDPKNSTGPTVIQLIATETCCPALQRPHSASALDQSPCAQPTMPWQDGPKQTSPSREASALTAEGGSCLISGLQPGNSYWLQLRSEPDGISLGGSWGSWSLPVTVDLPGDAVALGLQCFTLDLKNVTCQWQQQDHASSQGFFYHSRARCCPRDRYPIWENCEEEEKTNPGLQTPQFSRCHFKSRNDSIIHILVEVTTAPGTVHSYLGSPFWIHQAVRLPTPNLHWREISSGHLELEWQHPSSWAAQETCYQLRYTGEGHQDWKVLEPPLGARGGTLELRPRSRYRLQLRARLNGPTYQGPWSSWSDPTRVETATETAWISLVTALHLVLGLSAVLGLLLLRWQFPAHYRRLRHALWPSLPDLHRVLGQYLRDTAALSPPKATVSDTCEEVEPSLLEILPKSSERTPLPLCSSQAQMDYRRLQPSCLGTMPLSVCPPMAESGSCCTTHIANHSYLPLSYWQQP

B1: VA130 diabody (VA130 single-chain Fv with a five-amino acid (Gly4Ser)1 linker, FLAG-tagged) (scFv)
scFv: QVQLQQSGPELVKPGASVKISCKASGYAFSSSWMNWVKQRPGKGLEWIGRIYPGDGDTNYNGKFKGKATLTADKSSSTAYIQLSSLTSEDSAVYFCARGYADYSFAYWGQGTLVTVSAGGGGSDIVMTQAAPSVPVTPGESVSISCRSSKSLLHSNGNTYLYWFLQRPGQSPQLLIYRMSNLASGVPDRFSGSGSGTAFTLRISRVEAEDVGVYYCMQHLEYPYTFGSGTKLEIKDYKDDDDK
notes: The order is VH-(Gly4Ser)1-VL-FLAG; also called VA130 db
B2: VA130 sc(Fv)2 (other)
chain: QVQLQQSGPELVKPGASVKISCKASGYAFSSSWMNWVKQRPGKGLEWIGRIYPGDGDTNYNGKFKGKATLTADKSSSTAYIQLSSLTSEDSAVYFCARGYADYSFAYWGQGTLVTVSAGGGGSGGGGSGGGGSDIVMTQAAPSVPVTPGESVSISCRSSKSLLHSNGNTYLYWFLQRPGQSPQLLIYRMSNLASGVPDRFSGSGSGTAFTLRISRVEAEDVGVYYCMQHLEYPYTFGSGTKLEIKGGGGSGGGGSGGGGSQVQLQQSGPELVKPGASVKISCKASGYAFSSSWMNWVKQRPGKGLEWIGRIYPGDGDTNYNGKFKGKATLTADKSSSTAYIQLSSLTSEDSAVYFCARGYADYSFAYWGQGTLVTVSAGGGGSGGGGSGGGGSDIVMTQAAPSVPVTPGESVSISCRSSKSLLHSNGNTYLYWFLQRPGQSPQLLIYRMSNLASGVPDRFSGSGSGTAFTLRISRVEAEDVGVYYCMQHLEYPYTFGSGTKLEIKDYKDDDDK
notes: A single polypeptide with two VH and two VL units from VA130; also called anti-human Mpl antibody sc(Fv)2; VA130 single-chain antibody
B3: VA130 IgG (mouse monoclonal anti-human Mpl antibody VA130) (antibody, V domains shown)
VH: QVQLQQSGPELVKPGASVKISCKASGYAFSSSWMNWVKQRPGKGLEWIGRIYPGDGDTNYNGKFKGKATLTADKSSSTAYIQLSSLTSEDSAVYFCARGYADYSFAYWGQGTLVTVSA
VL: DIVMTQAAPSVPVTPGESVSISCRSSKSLLHSNGNTYLYWFLQRPGQSPQLLIYRMSNLASGVPDRFSGSGSGTAFTLRISRVEAEDVGVYYCMQHLEYPYTFGSGTKLEIK
notes: Whole mouse IgG from a hybridoma; also called VA130 antibody; VA130 anti-human Mpl antibody
B4: VB16 IgG (mouse monoclonal anti-human Mpl antibody VB16) (antibody, V domains shown)
VH: QVQLQQPGTELVRPGASVKLSCKASGYTFTDYWVNWVKQRPGRGLEWIGRIHPYDSETHYNQKFKNKATLTVDKSSSTAYIQLSSLTSEDSAVYYCASGGWFASWGQGTLVTVSA
VL: B3 VL with H31Y, R79T, R82S

Columns and labels:
[1] = biological target: T1, Human Mpl-IgG Fc fusion protein …; assay: ELISA on plates coated with hMpl-Fc, diabody detected by anti-FLAG M2
Experimental: (§1) The binding activity of anti-human Mpl single-chain antibody to hMPL-Fc was assessed using ELISA. After plates were coated with 0.5 μg/ml purified hMPL-Fc, blocking treatment was carried out using Diluent buffer. A purified product of VA130 was diluted to an appropriate concentration and added to the plates. Then, the plates were allowed to stand at room temperature for one hour. After washing with Rinse buffer, 1000-times-diluted ANTI-FLAG M2 Monoclonal Antibody (SIGMA-ALDRICH) was added. The plates were incubated at room temperature for one hour. Next, after washing with Rinse buffer, 1000-times-diluted Alkaline Phosphatase-labeled anti-mouse IgG antibody (Zymed) was added, and the plates were allowed to stand at room temperature for one hour. After washing with Rinse buffer, color development was achieved using SIGMA104 (SIGMA-ALDRICH) diluted to 1 mg/ml in substrate buffer. Color was developed for 15 minutes at room temperature and then absorbance was determined at 405 nm with Benchmark Plus.

[2] = biological target: human Mpl expressed on BaF3 cells (BaF3-human Mpl) (human) (UniProt P40238); assay: cell-based or functional assay
[3] = biological target: T1, Human Mpl-IgG Fc fusion protein …; assay: ELISA on plates coated with hMpl-Fc, sc(Fv)2 detected by anti-FLAG M2
Experimental: as §1

[4] = biological target: T2, human Mpl expressed on BaF3 cells …; assay: cell-based or functional assay
[5] = biological target: T1, Human Mpl-IgG Fc fusion protein …; assay: ELISA on plates coated with hMpl-Fc, IgG

Row | Binder | EC50 [1] [nM] | Agonistic activity, Analysis using Baf-hMpl (EC50) [2] [nM] | EC50 [3] [nM] | TPO-like agonist activity, BaF3-human Mpl proliferation (WST-8), EC50 [4] [nM] | EC50 [5] [nM]
1 | B1 | 0.11 | 0.222 |  |  | 
2 | B2 |  | 1.02 | 0.27 |  | 
3 | B3 |  |  |  | > 100 | 0.38
4 | B4 |  |  |  |  | 0.15
